Tests used:
Details in all cases: protein: recombinant; tags: N-terminal His6-TEV, removed; chain copies: 4; label: fluorescein
EcSSB WT = EcSSB WT (Escherichia coli, UniProt P0AGE0 1-178); test: fluorescence polarization; n = 1.7; 20 mM Tris-acetate pH 8, 50 mM K-glutamate, 10 mM Mg-acetate, 25 C; 10 nM labeled oligo, SSB concentrations as tetramers
EcSSB W136D = EcSSB W136D (Escherichia coli, UniProt P0AGE0 1-178, W136D); test: as above
EcSSB d2G = EcSSB d2G (Escherichia coli, UniProt P0AGE0 1-113+131-178, internal_change); test: fluorescence polarization; n = 1.8; 20 mM Tris-acetate pH 8, 50 mM K-glutamate, 10 mM Mg-acetate, 25 C; 10 nM labeled oligo, SSB concentrations as tetramers
EcSSB R116D-W136D = EcSSB R116D-W136D (Escherichia coli, UniProt P0AGE0 1-178, R116D;W136D); test: as above
EcSSB d1G = EcSSB d1G (Escherichia coli, UniProt P0AGE0 1-113+121-178, internal_change); test: fluorescence polarization; n = 2.2; 20 mM Tris-acetate pH 8, 50 mM K-glutamate, 10 mM Mg-acetate, 25 C; 10 nM labeled oligo, SSB concentrations as tetramers

B1: dT79 (ssDNA)
DNA: TTTTTTTTTTTTTTTTTTTTTTTTTTTTTTTTTTTTTTTTTTTTTTTTTTTTTTTTTTTTTTTTTTTTTTTTTTTTTTT
EcSSB WT
  Kd: < 10 nM
EcSSB W136D
  Kd: < 10 nM
EcSSB d2G
  Kd: 11 ± 2.5 nM
EcSSB R116D-W136D
  Kd: < 10 nM
EcSSB d1G
  Kd: 11 ± 2.6 nM
